Data taken from patent publication US20170304384A1 (AFFIRIS, published 2017).
Ends that are not written are not given here.

T1: peptide p6773 (human, not fully specified (residue 18))
T1 peptide: LPQPPPQAQPLLPQPQPC

T2: peptide p7564 (human, not fully specified (residue 1))
T2 construct: also called cleaved peptide
T2 peptide: CPSDSSEIVLD

T3: peptide p7605 (human, not fully specified (residue 1))
T3 peptide: CSEIVL

T4: peptide p7562 (human, not fully specified (residue 1))
T4 peptide: CDSSEIVLD

T5: peptide p7552 (human, not fully specified (residue 1))
T5 peptide: CSSEIVLD

B1: monoclonal antibody PRR13 (antibody, mouse IgG2a, V domains shown)
VH: EVQLQQSAPELVKPGASVKMSCKASGYSFTDFYMKWVKQSHGKGLEWIGDIDPKNGDTFYNQKFKGRATLTVDKSSSTAYMQLNSLTTEDSAVYYCATYYGYTMDYWGQGTSVTVSS
VL: QIVLTQSPAIMSASLGERVTMTCTASSSVTSSYLHWYQQKPGSSPKLWIYSTSNLASGVPARFSGSGSGTSYSLTISSMEAEDAATYYCHQYRRPPRTFGGGTKLEIKR
notes: Mouse hybridoma mAb raised with p6773, typed mouse IgG2a; The consensus entries come from cDNA and appear to include the leader and the start of the constant region; also called mAB PRR13
B2: monoclonal antibody M1D1 (antibody, mouse IgM, V domains shown)
VH: EVQLVESGGGLVQPKGSLKLSCAASGFTFNTYAMNWVRQAPGKGLEWVARIRSKSNNYATYYADSVKDRFTISRDDSQSMLYLQMNNLKTEDTAMYYCVRHGEYGNPWFAYWGQGTLVTVSA
VL: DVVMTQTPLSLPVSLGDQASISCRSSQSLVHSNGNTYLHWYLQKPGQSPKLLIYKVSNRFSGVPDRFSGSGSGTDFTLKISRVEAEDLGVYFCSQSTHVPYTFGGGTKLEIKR
notes: Mouse hybridoma mAb raised with p7564, typed mouse IgM; The consensus entries appear to include the leader and the start of the constant region; also called mAB M1D1

Legend:
[1] = molecular target: T6, recombinant N-terminal 610 amino acids Huntingtin fragment recHTT610 (human, UniProt P42858 1-610); assay: recHTT610 capture ELISA
T6 construct: range 1-610; Expressed in HEK293 freestyle cells and captured from cell extract by anti-V5 antibody; also called recombinant Huntingtin; reHTT610; not shown: two C-terminal V5 tags
T6 sequence (P42858 1-610): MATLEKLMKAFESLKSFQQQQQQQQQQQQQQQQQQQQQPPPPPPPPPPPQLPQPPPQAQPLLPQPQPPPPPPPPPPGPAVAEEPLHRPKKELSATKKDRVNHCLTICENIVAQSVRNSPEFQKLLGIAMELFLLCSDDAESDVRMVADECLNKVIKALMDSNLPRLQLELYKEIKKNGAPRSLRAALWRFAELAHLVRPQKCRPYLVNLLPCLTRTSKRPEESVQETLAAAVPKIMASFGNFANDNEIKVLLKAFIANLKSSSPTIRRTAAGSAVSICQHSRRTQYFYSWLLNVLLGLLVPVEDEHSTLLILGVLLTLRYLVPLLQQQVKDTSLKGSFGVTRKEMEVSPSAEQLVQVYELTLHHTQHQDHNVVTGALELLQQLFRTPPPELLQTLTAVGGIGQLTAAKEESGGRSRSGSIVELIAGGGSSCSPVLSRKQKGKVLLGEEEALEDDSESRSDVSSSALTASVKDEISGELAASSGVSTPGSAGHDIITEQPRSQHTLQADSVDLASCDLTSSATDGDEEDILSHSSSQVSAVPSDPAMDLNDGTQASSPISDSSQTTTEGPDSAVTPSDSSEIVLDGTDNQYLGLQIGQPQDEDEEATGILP
Description: Binding of antibodies to N-terminal fragment HTT610 was determined by a standard protein capture ELISA procedure using Maxisorb™ ELISA plates (Thermo; CatNr. 439454), coated with 50 μl of a 1:5000 rabbit anti V5 mAB (Sigma, CatNr. V8137), blocking with blocking buffer (PBS, 1% BSA, 0.1% Tween 20), capturing of recombinant Huntingtin from HEK cell extracts (100 ng/μl total protein) followed by incubation with several dilutions of mouse anti HTT sera (1:100; 1:300 and 1:900) or with mAB2166 as reference (diluted 1:2000; Millipore, Cat Nr. MAB2166) for 1 hour at RT. ELISA incubations, washing and detection procedures were performed according to standard procedures.
In contrast to specific anti peptide signals (FIG. 11), only 2 out of 9 mAB candidates, namely PRR13 and PRR18, specifically recognize recombinant Huntingtin when tested by recHTT610 capture ELISA (as explained in Example 1). These two candidates provided an outstanding signal to noise ratio (i.e. >=4; calculated reHTT610-specific signal: HEK ctrl extracts), and PRR13 was selected for epitope characterization (see Example 4) and variable chain sequencing (see below). PRR13 was determined as IgG subtype mouse IgG2a.

peptide p6773 = molecular target: T1, peptide p6773; assay: peptide ELISA / peptide microarray
peptide p7564 = molecular target: T2, peptide p7564; assay: peptide ELISA
peptide p7605 = molecular target: T3, peptide p7605; assay: peptide ELISA
peptide p7562 = molecular target: T4, peptide p7562; assay: peptide ELISA at a mAB concentration of 1 ng/µl
peptide p7552 = molecular target: T5, peptide p7552; assay: peptide ELISA at a mAB concentration of 1 ng/µl

Binder	signal to noise ratio (reHTT610-specific signal : HEK ctrl extracts) [1] [ratio]	binding result (peptide p6773)	binding result (peptide p7564)	binding result (peptide p7605)	binding result (peptide p7562)	binding result (peptide p7552)
B1	≥ 4	binds				
B2			binds	no binding (tested: mAB concentration of 1 ng/µl)	binds	binds
